The source of these data is patent US20250313607A1.

Assay in all cases: cell-based or functional assay
The target of assay [1] is VEGFR NatE MESA receptor pair: CTEVp (190K) receptor with a VEGFR1 signal sequence, ECD, and TMD paired with a NTEVp (WT) receptor with a VEGFR2 signal sequence, ECD, and TMD (human; tobacco etch virus).
For assay [2], the target named is IL-10R NatE MESA receptor pair in which both ECDs are IL-10Rβ (human; tobacco etch virus).
Assay [3] addresses IL-10R NatE MESA receptor pair in which both ECDs are IL-10Rα (human; tobacco etch virus).
The target of assay [4] is IL-10R NatE MESA receptor pair: CTEVp receptor with an IL-10Ra signal sequence, ECD, and TMD paired with a NTEVp receptor with an IL-10Rb ECD and TMD and a hCD8a signal sequence (human; tobacco etch virus).

Sequence of human vascular endothelial growth factor VEGFA165 (P15692 other isoform, or with tags, fused parts or gaps limits assumed): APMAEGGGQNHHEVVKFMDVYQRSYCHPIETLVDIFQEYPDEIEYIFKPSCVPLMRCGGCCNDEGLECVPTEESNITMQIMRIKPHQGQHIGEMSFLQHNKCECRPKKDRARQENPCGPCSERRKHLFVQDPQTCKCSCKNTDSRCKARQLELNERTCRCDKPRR

With “human vascular endothelial growth factor VEGFA165 (from UniProt P15692 27-191) (ligand)”, the dose of recombinant VEGF giving the highest reporter signal, genomically integrated receptors in HEK293FT cells in assay [1] was 100 ng/mL.
In turn, “human interleukin 10 (IL-10) (from UniProt P22301 19-178) (ligand)” displayed a fold induction of reporter expression, transfected receptors with co-expressed human IL-10 (fold induction) in assay [2] of 1. In addition, the fold induction of reporter expression, transfected receptors with co-expressed human IL-10 (fold induction) in assay [3] turned out to be 1. In assay [4], the IL-10 concentration at which reporter expression plateaus, genomically integrated receptors in Jurkat T cells stood at 250 ng/mL; the IL-10 concentration at which reporter expression saturates, genomically integrated receptors in HEK293FT cells came to 250 ng/mL; the lowest IL-10 concentration distinguished by reporter expression, genomically integrated receptors in HEK293FT cells was determined as 16 ng/mL; the lowest IL-10 dose detected, Jurkats sorted for the top octile of mNeonGreen expression was determined as 2 ng/mL. Further, in assay [4], the lowest IL-10 dose with a significant increase in reporter expression, antibiotic-selected Jurkat T cells was found to be 16 ng/mL.
